Source: US7205387B2, “Recombinant polypeptide useful for neurotrophin receptor mediated gene delivery and as neurotrophin agonist” (Agency for Science, Technology and Research, priority 2003, dated 2007)
Bridge positions count the residues as written; N and C are the ends. Ends that are not written are not given here.

B1: SPKR4NL1-2: chimeric protein: (SPKR)4 DNA-binding domain, α-helical linker, targeting domain with loops 1 and 2 of NGF (aa 17–67), His10 tag (protein)
chain: MGHHHHHHHHHHSSGHIEGRHMSPKRSPKRSPKRSPKRGGTYLSEDELKAAEAAFKRHNPTGSCSVSVWVGDKTTATDIKGKEVMVLGEVNINNSVFKQYFFETKCRDPNPVDSG
modifications: SPKR4NL1-2

Legend:
[1] = system: lumbar segment of the spinal cord; test: Gene delivery in vivo, intrathecal injection, lumbar spinal cord; set-up: species or system rat; details: 3 μg pCAGluc, PEI600 N/P 5, peptide N/P 5, intralumbar, 3 days
Description: In vivo gene delivery was studied by intrathecal injections of adult Wistar rats (8 weeks old, 180–200 g). The rats were anesthetized by intraperitoneal injection of sodium pentobarbital. After the skin around L4–L5 was exposed, the gene delivery complex was slowly injected into the subarachnoid space using a syringe. A slight tail movement accompanied correct placement of the needle. After injection, the syringe was left in place for five minutes to limit diffusion caused by backflow pressure. Multiple injections were sometimes required to deliver the full volume of the complex. After injection, the skin was closed with surgical clips and the animals were kept warm until they recovered. […] The lumbar segment of the spinal cord and the lumbar dorsal root ganglia were excised. The tissues were homogenized in 100–400 μl of Reporter Lysis Buffer (Promega) depending on size and subjected to three freeze-thaw cycles. The lysates were centrifuged at 14000 g for 5 min at 4° C. The supernatant was tested for luciferase activity using the Luciferase Assay System (Promega) in a single-tube luminometer (Berthold Lumat LB 9507). The readings were normalized by the total protein content of the lysates, as measured by the DC Protein assay (Bio-Rad).

Akt = test: Phospho-Akt immunoblot in PC12 cells; assay type: cell-based, rat; details: 5 μM peptide, 20 min
Protocol: (§1) Immunoblotting experiments were conducted to test whether the chimeric polypeptides could, like NGF, induce autophosphorylation of TrkA and activation of its signal transduction pathways. PC12 cells were seeded in 6-well plates at a density of 2×10^6 cells/well and cultured in RPMI 1640 containing 0.5% FBS and 0.25% horse serum for 2 days. The low serum concentrations were necessary to reduce the basal levels of phosphorylation. The medium was refreshed two hours before beginning treatment. The cells were incubated with the polypeptides or NGF in serum-free medium for 15–20 min. The cells were then washed in PBS, lysed, and sonicated. The cell lysates were resolved by SDS-PAGE and transferred to a nitrocellulose membrane for immunoblotting. The primary antibodies used include Phospho-TrkA (Tyr490) antibody, Phospho-p44/p42 MAPK (Thr202/Tyr204) monoclonal antibody, and Phospho-Akt (Ser473) monoclonal antibody, all obtained from Cell Signaling Technology (Beverly, Mass., USA). Colorimetric detection was performed by standard techniques after using horse-radish peroxidase-conjugated secondary antibodies. In some experiments, TrkA tyrosine kinase inhibitors K-252a or AG879 (both from Calbiochem, La Jolla, Calif., USA) were used. In these cases, PC12 cells were incubated with 100 nM K-252a or 10 μM AG879 before addition of polypeptides or NGF.

TrkA = biological target: T1, TrkA (Rattus norvegicus, UniProt P35739); test: Phospho-TrkA immunoblot in PC12 cells; assay type: cell-based
T1 construct: endogenous in cells; host or cells: PC12 (rat pheochromocytoma, ATCC)
T1 sequence (P35739 33-799): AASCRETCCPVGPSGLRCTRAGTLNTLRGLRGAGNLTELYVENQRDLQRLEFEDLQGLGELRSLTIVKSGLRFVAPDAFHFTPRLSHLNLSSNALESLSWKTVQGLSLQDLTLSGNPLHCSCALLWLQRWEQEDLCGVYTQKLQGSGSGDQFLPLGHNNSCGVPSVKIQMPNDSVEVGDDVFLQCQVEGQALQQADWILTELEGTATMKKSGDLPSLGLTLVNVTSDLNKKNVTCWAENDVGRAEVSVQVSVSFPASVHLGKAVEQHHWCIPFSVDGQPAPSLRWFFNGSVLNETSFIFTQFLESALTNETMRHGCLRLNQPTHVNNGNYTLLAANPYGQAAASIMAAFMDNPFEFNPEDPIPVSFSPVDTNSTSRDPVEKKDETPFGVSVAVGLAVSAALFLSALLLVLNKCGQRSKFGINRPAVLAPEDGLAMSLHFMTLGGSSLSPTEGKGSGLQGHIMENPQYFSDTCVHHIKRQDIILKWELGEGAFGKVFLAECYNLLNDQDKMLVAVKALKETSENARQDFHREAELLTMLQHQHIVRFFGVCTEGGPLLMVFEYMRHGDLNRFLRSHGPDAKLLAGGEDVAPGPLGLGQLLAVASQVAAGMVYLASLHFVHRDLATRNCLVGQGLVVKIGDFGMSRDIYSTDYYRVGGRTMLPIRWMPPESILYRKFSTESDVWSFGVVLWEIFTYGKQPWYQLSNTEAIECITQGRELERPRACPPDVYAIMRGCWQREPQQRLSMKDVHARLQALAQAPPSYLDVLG
Protocol: as §1

primary glial cells = test: Gene delivery to primary cultures of glial cells; assay type: cell-based, rat
Protocol: Primary cultures of glial cells were established from the cortices of 20-day old embryonic Wistar rats. Individual cells were collected as described above. The cells were plated at a density of 4×10^5 viable cells/cm^2 on poly-L-lysine/laminin coated dishes and grown to confluence for 7 days in DMEM/F12 medium supplemented with 10% FCS. The day before transfection, the cells were detached and plated into coated microplates at a density of 2.5×10^4 cells per well. Gene delivery complexes were also tested on primary cultures of cortical neurons and glial cells in a similar fashion. […] Four hours later, an equal volume of DMEM-F12/N2 was added. One to two days after transfection, the cell culture medium was removed and the cells were rinsed in phosphate-buffered saline (PBS). Enough Reporter Lysis Buffer (Promega, Wisconsin, Md., USA) to cover the bottom surface was added to each well (50 μl/well for 48-well plates). After one freeze-thaw cycle, the lysates were tested for luciferase activity using the Luciferase Assay System (Promega) and a single-tube luminometer (Berthold Lumat L B 9507, Bad Wildbad, Germany). The total protein concentration of each lysate was determined using the DC Protein assay (Bio-Rad, Hercules, Calif., USA). The results were expressed in relative light units (RLU) per milligram of total protein.

PC12 cells [2] = test: PC12 neurite outgrowth assay; assay type: cell-based, rat; details: 8 μM, 3 days
Protocol: Chimeric polypeptides were examined for their ability to induce neurite outgrowth in PC12 cells. Polypeptides in a range of concentrations were added to PC12 cells cultured in serum-enriched RPMI-1640 medium. The cells were incubated for three days and photographed every 24 h.

plasmid DNA [3] = test: DNA retardation assay (agarose gel electrophoresis); assay type: binding
Protocol: This assay qualitatively assesses the ability of a polypeptide or polycation to bind to DNA and thus to retard its migration (by decreasing its charge/mass ratio) through an agarose gel under electrophoresis. For a range of N/P ratios, polypeptide was added to 0.1 μg of plasmid DNA made up to 20 μl with either HEPES-buffered saline (HBS, 150 mM NaCl, 29 mM HEPES, pH 7.3) or 5% glucose. The mixtures were vortexed and incubated at room temperature for 30 minutes before being subjected to electrophoresis in a 0.8–1.0% Tris-borate-EDTA agarose gel stained with ethidium bromide for visualization under ultraviolet light.

plasmid DNA [4] = test: Ethidium bromide displacement assay; assay type: binding; details: 0.8 μg DNA pre-mixed with ethidium bromide
Protocol: In this assay, the quenching of the fluorescence of ethidium bromide intercalated in DNA is used to measure DNA-binding and condensing ability. Ethidium bromide (153 μl of a 0.01% solution) was added to 96 μg of plasmid DNA and diluted with water to a final volume of 6 ml. In wells of a 96-well microplate, various amounts of polypeptide were placed in a volume of 50 μl, to which 50 μl of the DNA-ethidium bromide solution was added. After five minutes of mixing, 100 μl of water was added. The fluorescence reading was taken using wavelengths of 485 nm for excitation and 593 nm for emission on a SPECTRAFluor Plus microplate reader (TECAN, Maennedorf, Switzerland).

PC12 cells [5] = test: PC12 cell survival assay (MTT, serum-free medium); assay type: cell-based, rat; details: 8 μM, deprived of serum and NGF for 3 days
Protocol: Undifferentiated or differentiated (by 6-day treatment with 10 ng/ml NGF) PC12 cells seeded onto collagen-coated 96-well plates were exposed to serum-free RPMI-1640 medium containing either NGF or various concentrations of chimeric polypeptides. After 3–4 days of incubation, cell viability was measured by the standard MTT assay. Cell survival was expressed as a percentage of the viability of the NGF-treated control.

Molecule | transfection in spinal cord near the lumbar injection site relative to 10K control [1] | activation (phosphorylation) of Akt (Akt) | activation (phosphorylation) of TrkA (TrkA; 5 μM peptide, 20 min) | activity when complexed with DNA (TrkA; NL4-10K/DNA complexes (N/P ratio of 5)) | difference between transfection efficiencies of NL4-10K and 10K (primary glial cells; peptide/DNA 0.75 nmol/μg (N/P ratio of 2.5), chloroquine) | neurite outgrowth (PC12 cells [2]) | DNA binding / retardation of DNA migration (in words) (plasmid DNA [3]) | N/P ratio at which ethidium bromide fluorescence dropped sharply (DNA condensation) (plasmid DNA [4]) | activation of TrkA (phospho-TrkA Western blot) (TrkA; 8 μM, 20 min) | difference between SPKR4NL1-2 and (SPKR)4 triple complexes (primary glial cells; 0.25 μg/well pCAGluc, PEI600, 24 h) | PC12 viability as % of maximum NGF-promoted survival rate (PC12 cells [5])
CTTTHTFVKALTMDGKQAAWRFIRIDTACKKKKKKKKKK (CTTTHTFVKALTMDGKQAAWRFIRIDTACKKKKKKKKKK; disulfide 1-29) [NL4-10K] | decreased relative to the 10K control | induced activation | induced activation | retained its activity | not significant | – | – | – | – | – | –
B1 | – | – | – | – | – | promotes neurite outgrowth | reduced the mobility of DNA | about 10 N/P ratio | activates TrkA | essentially no difference | 80%
